Results on two substances are retold here after publication PMC5680793.

What is called Kd is the constant that tells how readily two partners part at equilibrium. Read a high Kd as weaker binding.

Assay [1] deals with His-tagged mouse FcRn (mouse) (UniProt Q61559). Put plainly: BLI. Background: In BLI a coated tip is dipped into the sample, and binding shifts an interference pattern.
Assay [2] has as its target Mouse IgG2b (wild-type) (mouse). Put plainly: ITC. (In general: ITC needs no label: the signal is the heat of the interaction.)

Chain of UniProt Q61559 (Q61559 22-297, chain 1 of 2): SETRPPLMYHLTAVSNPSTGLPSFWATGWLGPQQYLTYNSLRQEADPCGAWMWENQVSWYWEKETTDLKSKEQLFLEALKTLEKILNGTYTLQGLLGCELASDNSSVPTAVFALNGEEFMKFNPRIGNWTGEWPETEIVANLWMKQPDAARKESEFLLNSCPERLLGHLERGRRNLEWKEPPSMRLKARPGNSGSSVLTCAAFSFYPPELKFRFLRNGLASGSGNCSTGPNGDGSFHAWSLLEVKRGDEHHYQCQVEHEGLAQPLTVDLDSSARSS
Chain of UniProt Q61559 (P01887 21-119, chain 2 of 2, further chain): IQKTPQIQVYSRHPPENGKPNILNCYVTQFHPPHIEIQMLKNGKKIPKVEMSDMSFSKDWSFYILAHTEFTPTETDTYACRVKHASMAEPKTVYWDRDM

Mouse IgG2a P307T, Q309L (antibody) gave a fold change of relative kon against wild-type IgG2a in assay [1] of 2.7 fold.

The substance Z34C peptide showed a dissociation constant (Kd) in assay [2] of 2600 nM.
